{"source": "the nanobody polyreactivity screen of Harvey et al. (2022)"}
{"experiment": "yeast display, Sf9 membrane polyspecificity reagent, FACS + sequencing; frameworks hold sequencing errors", "how_it_was_run": "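Galactose-induced (36–48 hours) yeast carrying a synthetic nanobody display library were exposed to 10% biotinylated, detergent-solubilized Sf9 membrane reagent at 4 °C for 1 hour. FACS followed streptavidin microbead enrichment, using low and high (top ~1%) gates for expression (anti-HA) and reagent binding (streptavidin). Colony PCR, MiSeq 2 × 250 sequencing and CDR-length filtering followed. Labels for polyreactivity reflect the gate of origin.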"}
{"sequence": "QVQLVESGGGLVQAGGSLRLSCAASGRTFYIYAMGWYRQAPGKERELVAAITYGGGRTFYADSVKGRFTISRDNAKNTVYLQMNSLKPEDTAVYYCARGDFYYHSRYTYYTSDYWGQGTQVTVSS", "polyreactivity (PSR sort gate)": "high polyreactivity"}
{"sequence": "QVQLVESGGGLVQAGGSLRLSCAASGRTFYIYAMGWYRQAPGTERELVAAITWSGGTTYYADSVKGRFTISRDNAKNTVYLQMNSLKPEDTAVYYCAADRYGFYLESYYWGQGTQVTVSS", "polyreactivity (PSR sort gate)": "low polyreactivity"}
{"sequence": "QVQLVESGGGLVQAGGSLRLSCAASGRTFYKNAMGWYRQAPWKERELVAAISYGGGSTYYADSVKGRFTISRDNAKNTVYLQMNSLKPEDTAVYYCATQLPFRKPWHDYWGQGTQVTVSS", "polyreactivity (PSR sort gate)": "high polyreactivity"}
{"sequence": "QVQLVESGGGLVQAGGSLRLSCAASGRTFYKNTMGWYRQAPGKERELVATITRRGGTTYYADSVKGRFTISRDNAKNTVYLQMNSLKPEDTAVYYCAKDASTEKYDYWGQGTQVTVSS", "polyreactivity (PSR sort gate)": "low polyreactivity"}
{"sequence": "QVQLVESGGGLVQAGGSLRLSCAASGRTFYKYMGWYRQAPGKERELVAAIRWSGGSTYYADSVKGRFTISRDNAKNTVYLQMNSLKPEDTAVYYCAAGKQAPAVNYGYYYWGQGTQVTVSS", "polyreactivity (PSR sort gate)": "low polyreactivity"}
{"sequence": "QVQLVESGGGLVQAGGSLRLSCAASGRTFYLNAMGWYRPAPGKDRELVATITSRAGSTRYADSVKGRFTISRDNAKNTVYLQMNSLKPEDTAVYYCAVRSTDPYRRGPSYYYWGQGTQVTVSS", "polyreactivity (PSR sort gate)": "high polyreactivity"}
{"sequence": "QVQLVESGGGLVQAGGSLRLSCAASGRTFYLNAMGWYRQAPGKVRELVAAIRFSGGSTYYADSVKGRFTISRDNAKNTVYLQMNSLKPEDTAVYYCNAGPYHSLYPTVSEYGYWGQGTQVTVSS", "polyreactivity (PSR sort gate)": "low polyreactivity"}
{"sequence": "QVQLVESGGGLVQAGGSLRLSCAASGRTFYLYTMGWYRQAPGKERELVAAITGGGRTYYADSVKGRFTISRDNAKNTVYLQMNSLKPEDTAVYYCNADYAYYSYDYWGQGTQVTVSS", "polyreactivity (PSR sort gate)": "low polyreactivity"}
{"sequence": "QVQLVESGGGLVQAGGSLRLSCAASGRTFYLYTMGWYRQAPGKERELVAGISWSGGSTYADSVKGRFTISRDNAKNTVYLQMNSLKPEDTAVYYCAAEVYYGYDYWGQGTQVTVSS", "polyreactivity (PSR sort gate)": "low polyreactivity"}
{"sequence": "QVQLVESGGGLVQAGGSLRLSCAASGRTFYNYAMGWYRQAPGKERELVAAIDWGSDSTYYADSVKGRFTISRDNAKNTVYLQMNSLKPEDTAVYYCAAYLVSVNSRTYDYWGQGTQVTVSS", "polyreactivity (PSR sort gate)": "low polyreactivity"}
{"sequence": "QVQLVESGGGLVQAGGSLRLSCAASGRTFYNYAMGWYRQAPGKERELVAAITRGGSTYYADSVKGRFTISRDNAKNTVYLQMNSLKPEDTAVYYCNAYYYIPFEGRGYSKLDYWGQGTQVTVSS", "polyreactivity (PSR sort gate)": "high polyreactivity"}
{"sequence": "QVQLVESGGGLVQAGGSLRLSCAASGRTFYPNAMGWYRQAPGKERELVAGIRSSGDSTYYADSVKGRFTISRDNAKNTVYLQMNSLKPEDTAVYYCNRDLTPSYDYWGQGTQVTVSS", "polyreactivity (PSR sort gate)": "low polyreactivity"}
{"sequence": "QVQLVESGGGLVQAGGSLRLSCAASGRTFYPYAMGWYRQAPGKEREFVAAITWTGDSTYYADSVKGRFTISRDNAKNTVYLQMNSLKPEDTAVYYCAADLSSSPYYYGYDYWGQGTQVTVSS", "polyreactivity (PSR sort gate)": "low polyreactivity"}
{"sequence": "QVQLVESGGGLVQAGGSLRLSCAASGRTFYPYAMGWYRQAPGKERELVAAIRRSDGSTYYADSVKGRFTISRDNAKNTVYLQMNSLKPEDTAVYYFAAGQGSRNQYYYWGHGTQVTVSS", "polyreactivity (PSR sort gate)": "high polyreactivity"}
{"sequence": "QVQLVESGGGLVQAGGSLRLSCAASGRTFYPYAMGWYRQAPGKERELVAAISSSGGSTYYADSVKGRFTISRDNAKNTVYLQRNSLKPEYTPVYYCASYLRPGGNYYWGQGTQVTVSS", "polyreactivity (PSR sort gate)": "high polyreactivity"}
{"sequence": "QVQLVESGGGLVQAGGSLRLSCAASGRTFYPYAMGWYRQATGKERELVAAIDYSSATTYYADSVKGRFTISRDNAKNTVYLQMNSLKPEDTAVYYCARVGIGVGWSKLNYWGQGTQVTVSS", "polyreactivity (PSR sort gate)": "low polyreactivity"}
{"sequence": "QVQLVESGGGLVQAGGSLRLSCAASGRTFYQNVMGWSRQAPGKERELVAAITWGGGSTYYADSVKGRFTISRDNAKNTVYLQMNSLKPEDTAVYYCNRTFRSRLPTSRGYDYWGQGTQVTVSS", "polyreactivity (PSR sort gate)": "low polyreactivity"}
{"sequence": "QVQLVESGGGLVQAGGSLRLSCAASGRTFYRNAMGWSRQAPGKERELVAAISSTGSTYYAESVKGRFTSSRDNAKNTVYLQMNSLKPEDTAVYYCARGVHGIFGYLGQGTQVTVSS", "polyreactivity (PSR sort gate)": "low polyreactivity"}
{"sequence": "QVQLVESGGGLVQAGGSLRLSCAASGRTFYRNAMGWYRQAPGKERELVAAISSTGSTYSADSVKGRFTISRDNAKNTVYLQMNSLKPEDTAVYYCARGVHGIFGYWGQGTQVTVSS", "polyreactivity (PSR sort gate)": "low polyreactivity"}
{"sequence": "QVQLVESGGGLVQAGGSLRLSCAASGRTFYRNAMGWYRQAPGKERELVARISRNGGTTYYADSVKGRFTISRDNAKNTVYLQMNSLKPEDTAVYYCAAPIYDGARGDYWGQGTQVTVSS", "polyreactivity (PSR sort gate)": "high polyreactivity"}
{"sequence": "QVQLVESGGGLVQAGGSLRLSCAASGRTFYRNAMGWYRQAPGKERELVGAISQSGGSTYYADSVKGRFKISRDNAKNTVYLQMNCLIPEDTAVYSCAAGKSRRVGMDYWGQGTQVTVSS", "polyreactivity (PSR sort gate)": "high polyreactivity"}
{"sequence": "QVQLVESGGGLVQAGGSLRLSCAASGRTFYRNAMGWYRQAPGKETELVAAITWSGVSTYYADSVKGRFTISRDNAKNTVYIQMNSLKPEDTAVYYCSRARVLRNGHYFQLRNYDYWGQGPQVTVSS", "polyreactivity (PSR sort gate)": "high polyreactivity"}
{"sequence": "QVQLVESGGGLVQAGGSLRLSCAASGRTFYRNAMGWYRQARGKERELVAAISSRGGSTYYADSVKGRFTISRDNAKNTVYLQMNSLKPEDTAVYYCAARYLYLWADYEYGYWGQGTQVTVSS", "polyreactivity (PSR sort gate)": "high polyreactivity"}
{"sequence": "QVQLVESGGGLVQAGGSLRLSCAASGRTFYRYAMGWYRQAPGKERELVAAISGSGGRTYYADSVKGRFTISRDNAKNTVYFQMNSLKPEDTAVYYCNAYPHAYTGSTREGDYWGQGTQVTVSS", "polyreactivity (PSR sort gate)": "high polyreactivity"}
{"sequence": "QVQLVESGGGLVQAGGSLRLSCAASGRTFYRYAMGWYRQAPGKERELVAAITTGGGSTYYADSVKGRFTISRDNAKNTVYLQMNSLKPEETAVYYCNVYSSYTRRTLGDYWGQGTQVTVSS", "polyreactivity (PSR sort gate)": "high polyreactivity"}
{"sequence": "QVQLVESGGGLVQAGGSLRLSCAASGRTFYRYAMGWYRQAPGKERELVAAITWSGGSTYYADSVKGRFTTSRDNAKNTVYFQMNSLKPEDTAVYYCARRLYPYRPTAYDYWGQGTQVTVSS", "polyreactivity (PSR sort gate)": "low polyreactivity"}
{"sequence": "QVQLVESGGGLVQAGGSLRLSCAASGRTFYRYAMGWYRQAPGKERELVAGITSGGITYYADSVKGRFTISRDNAKNTVYLQMNSLKPEDTAVYYCAASYAFFSYRAWYTSGNEYWGQGTQVTVSS", "polyreactivity (PSR sort gate)": "high polyreactivity"}
{"sequence": "QVQLVESGGGLVQAGGSLRLSCAASGRTFYRYAMGWYRQAPGKERELVARITNRGGITYYADSVKGRFTISRDNAKNTVYLQMNSLKPEDTAVYYCAADPIGYTWAGTHGDYYNEHDYWGQGTQVTVSS", "polyreactivity (PSR sort gate)": "low polyreactivity"}
{"sequence": "QVQLVESGGGLVQAGGSLRLSCAASGRTFYRYAMGWYRQAPGKERELVAVISGRGGGTYYADSVKGRFTISRDNAKNTVYLQMNSLKPEDTAVYYCAKEYWGVTPTYYYWGQGTQVTVSS", "polyreactivity (PSR sort gate)": "high polyreactivity"}
{"sequence": "QVQLVESGGGLVQAGGSLRLSCAASGRTFYRYTMGWYRQAPGKERELVAAIDRRGGSTYYADSVKGRFTISRDNAKNTVYLQMNSLKPEDTAVYYCNAVTHYSFDYWGQGTQVTVSS", "polyreactivity (PSR sort gate)": "high polyreactivity"}
{"sequence": "QVQLVESGGGLVQAGGSLRLSCAASGRTFYSKAMGWYRQAPGKERELVAAISSSGSSTSYADSVKGRFTMSRDNAKNTVYLQMNSLKPEDTAVYYCAARTKRRANRDYWGQGTQVTVSS", "polyreactivity (PSR sort gate)": "high polyreactivity"}
{"sequence": "QVQLVESGGGLVQAGGSLRLSCAASGRTFYSNAKGWSRQAPGKERELVAGISKRGTITYYADSVKGRFTISRDNAKNTVYLQMNSLKPEDTAVYYCAAKPPSYIVKGDGRDDYWGQGTQVTVSS", "polyreactivity (PSR sort gate)": "high polyreactivity"}
{"sequence": "QVQLVESGGGLVQAGGSLRLSCAASGRTFYSNAMGWYRQAPGKERELVAAIRRSRGRTYYADSVKGRFTISRDIAKNTVYLQMNSLKPEDTAVYYCATARYRAEMGYWGQGTQVTVSS", "polyreactivity (PSR sort gate)": "high polyreactivity"}
{"sequence": "QVQLVESGGGLVQAGGSLRLSCAASGRTFYSNAMGWYRQAPGKERELVAAISSSGGRTFYADSVKGRFTISRDNAKNTVYLQMNSLKPEDTAVYYCAAVPGYPRDSLYNYWGQGTQVTVSS", "polyreactivity (PSR sort gate)": "high polyreactivity"}
{"sequence": "QVQLVESGGGLVQAGGSLRLSCAASGRTFYSNAMGWYRQAPGKERELVAAISYNDGSTYYADSVKGRFTISRDNAKNTVYLQMNSLKPEDTAVYYCNADVGAWAWYTRYDYWGQGTQVTVSS", "polyreactivity (PSR sort gate)": "low polyreactivity"}
{"sequence": "QVQLVESGGGLVQAGGSLRLSCAASGRTFYSNTIGWYRQAPGNESELVAAINRGGSTYYADSVKGRFTISRDNAKNTVYFQMNSLKPEDTAVYYCAVGYAHSSNRRYYYKKTHGYWGQGTQVTVSS", "polyreactivity (PSR sort gate)": "low polyreactivity"}
{"sequence": "QVQLVESGGGLVQAGGSLRLSCAASGRTFYSYAMGWYIQAPGKERELVATINRGSGTNYADSVKGRFTISRDNAKNSVYLQMNSLKPEDSAVYSCAVDRRVLWYHMDYWGQGTKVTVSS", "polyreactivity (PSR sort gate)": "high polyreactivity"}
{"sequence": "QVQLVESGGGLVQAGGSLRLSCAASGRTFYSYAMGWYRQAPGKERELVAAISAGGSTYYADSVKGRFTISRDNAKNTVYLQMNSLKPEDTAVYYCAATYSYYYARYHYWGQGTQVTVSS", "polyreactivity (PSR sort gate)": "high polyreactivity"}
{"sequence": "QVQLVESGGGLVQAGGSLRLSCAASGRTFYSYAMGWYRQAPGKERELVAGITWSGTSTYYADSVKGRFTISRDNAKNTVYLQMNSLKPEDTAVYYCAAATLYSRYDYWGQGTQVTVSS", "polyreactivity (PSR sort gate)": "low polyreactivity"}
{"sequence": "QVQLVESGGGLVQAGGSLRLSCAASGRTFYSYAMGWYRQAPGKERELVASISYGGGTNYADSVKGRFTISRDNAKNTVYLQMNSLKPEDTAVYYCAAKYWFFYPYDYWGQGTQVTVSS", "polyreactivity (PSR sort gate)": "low polyreactivity"}
{"sequence": "QVQLVESGGGLVQAGGSLRLSCAASGRTFYSYTMGWYRPAPGKERELVAAISSRGGSTYYADSVKGRFTISRDNAKNTVYLQMNSLKPEDTAVYYCNAARYGRHLSTYDYWGQGTQVTVSS", "polyreactivity (PSR sort gate)": "high polyreactivity"}
